# Laboratory results: patent US20030100068A1
# Target: RANK (Receptor Activator of NF-kappa B) on primary murine osteoblasts (murine (primary murine osteoblasts)) (UniProt O35305)
# Test: cell-based or functional assay
# UniProt O35305, sequence (O35305 31-625): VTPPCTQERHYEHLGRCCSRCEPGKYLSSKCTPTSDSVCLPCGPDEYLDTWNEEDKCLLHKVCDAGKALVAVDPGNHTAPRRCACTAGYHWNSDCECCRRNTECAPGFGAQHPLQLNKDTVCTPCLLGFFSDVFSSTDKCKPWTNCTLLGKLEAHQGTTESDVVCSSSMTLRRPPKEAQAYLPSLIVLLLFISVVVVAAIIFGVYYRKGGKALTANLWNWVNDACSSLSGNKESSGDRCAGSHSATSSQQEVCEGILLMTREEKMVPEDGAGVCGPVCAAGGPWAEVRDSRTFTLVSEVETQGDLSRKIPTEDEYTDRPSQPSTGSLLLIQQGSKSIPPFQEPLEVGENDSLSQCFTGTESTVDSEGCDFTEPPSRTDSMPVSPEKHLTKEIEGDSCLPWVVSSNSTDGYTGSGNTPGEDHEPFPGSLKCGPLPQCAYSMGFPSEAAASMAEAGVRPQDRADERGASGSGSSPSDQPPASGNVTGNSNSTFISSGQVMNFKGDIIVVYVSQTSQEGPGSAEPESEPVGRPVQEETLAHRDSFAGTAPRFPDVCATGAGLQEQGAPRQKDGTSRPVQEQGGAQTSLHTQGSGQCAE
row,Substance,"surface residence or internalization of RANK on primary osteoblasts exposed to 5 nM ligand (confocal microscopy, anti-RANK staining against membrane dye) [h]"
1,cleaved RANKL (GST removed from GST-RANKL with human rhinovirus 3C protease) (ligand),< 1
2,GST-RANKL (fusion product of the external domain of RANKL and glutathione S-transferase) (from UniProt P08515) (ligand),> 1
